Experiment [1] addresses T1, human Dectin-1 (isoform not given) (human, UniProt Q9BXN2 1-247).
T1 chain: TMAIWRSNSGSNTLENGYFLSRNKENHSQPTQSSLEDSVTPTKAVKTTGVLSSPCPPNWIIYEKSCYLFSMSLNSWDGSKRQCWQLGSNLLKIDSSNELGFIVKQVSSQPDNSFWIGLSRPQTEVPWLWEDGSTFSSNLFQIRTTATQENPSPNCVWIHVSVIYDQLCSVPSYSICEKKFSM
As to the kind of experiment: flow cytometry, human monocytes.

Experiment [2] has as its target human Dectin-1 isoform A (human) (UniProt Q9BXN2). The experiment can be described thus: flow cytometry, HEK-Blue hDectin-1a cells. For orientation: In flow cytometry, cells or beads pass a laser one at a time.
The target in experiment [3] is human Dectin-1 isoform B (human) (UniProt Q9BXN2). The experiment can be described thus: flow cytometry, HEK-Blue hDectin-1b cells.
Experiment [4] has as its target human Dectin-1 isoform A (human) (UniProt Q9BXN2). The experiment can be described thus: flow cytometry, HEK293F hDectin-1a FL cells.
The target in experiment [5] is cynomolgus monkey Dectin-1 (cynomolgus monkey). The experiment can be described thus: flow cytometry, cynomolgus monkey monocytes.
Experiment [6] shares this target. The experiment can be described thus: flow cytometry, cynomolgus monkey monocytes. The source holds these as a separate data set.
The target in experiment [7] is T1, human Dectin-1 (isoform not given). The experiment can be described thus: cell-based or functional assay.
In a further experiment the target is T2, human CD20 (human, UniProt P11836 1-297).
T2 construct: whole, on cells; also called hCD20
T2 sequence (looked up): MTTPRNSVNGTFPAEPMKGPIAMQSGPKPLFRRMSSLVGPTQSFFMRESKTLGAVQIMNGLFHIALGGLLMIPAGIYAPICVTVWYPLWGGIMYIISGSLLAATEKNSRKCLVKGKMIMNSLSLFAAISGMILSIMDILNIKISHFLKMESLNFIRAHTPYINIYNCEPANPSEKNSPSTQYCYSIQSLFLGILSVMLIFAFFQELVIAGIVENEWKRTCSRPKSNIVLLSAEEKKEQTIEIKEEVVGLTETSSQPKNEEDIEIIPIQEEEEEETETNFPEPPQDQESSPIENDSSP
The experiment can be described thus: flow cytometry, Raji cells.

Experiment [8] concerns the target T1, human Dectin-1 (isoform not given). As to the kind of experiment: flow cytometry, HEK 293 cells stably overexpressing human Dectin-1.

Like-named read-outs stand apart in the source and are kept apart here.

This note sets out measurements from patent US20220127366A1 (DREN BIO, published 2022).

The term EC50 denotes the midpoint of the concentration-response curve.

As for anti-Dectin-1 antibody GE2 (commercial), the EC50 came out at 1.4 nM in experiment [1], 1.9 nM in experiment [2], 12 nM in [3] and 2.4 nM in [4].
Consider “anti-Dectin-1 antibody 259931 (commercial)”, for which the EC50 stood at 0.3 nM in [1]; 16 nM in [5]; 0.8 nM in [2]; 0.9 nM in [3]; 1.2 nM in experiment [4]; 16.5 nM in experiment [6].

B1: anti-Dectin-1 antibody 15E2 (commercial) (antibody, V domains shown)
VH: QWQLQQSGAELARPGASWKMSCKASGYTFTTYTMHWWKQRPGQGLEWIGYINPSSGYTNYNQKFKDKATLTADKSSSTASMQLSSLTSEDSAWYYCARERAVLVPYAMDYWGQGTSVTVSS
VL: QIVLTQSPAVMSASPGEKWTITCTASSSLSYMHWFQQKPGTSPKLWLYSTSILASGVPTRFSGSGSGTSYSLTISRMEAEDAATYYCQQRSSSPFTFGSGTKLEIK
On to B1, for which, in experiment [7], the “IFNg secretion in PBMC (fold change to isotype), immobilized antibody” value was 1.6 fold change to isotype; the “IL6 secretion in PBMC (fold change to isotype), immobilized antibody” value is 2.6 fold change to isotype; the “TNFa secretion in PBMC (fold change to isotype), immobilized antibody” value is 3 fold change to isotype.

B2: 2M24/RSV hIgG1 (fucosylated or afucosylated) (bispecific antibody, V domains shown)
VH 1: QVQLVQSGAEVKKPGASVKVSCKSSGYTFTDYYIHWVRQAPGQGLEWMGWINPNSGDTNYAQKFQGRITMTRDTSISTAYLELSRLRSDDTAVFYCARNSGSYSFGYWGQGTLVTVSS
VL 1: DIQMTQSPSSVSASVGDRVTITCRASQGISSWLAWYQQKPGKAPKLLIFGASSLQSGVPSRFSGSGSGTDFTLTVSSLQPEDFATYYCQQAYSFPFTFGPGTKVDIE
VH 2: QVTLRESGPALVKPTQTLTLTCTFSGFSLSTSGMSVGWIRQPPGKALEWLADIWWDDKKDYNPSLKSRLTISKDTSANQVVLKVTNMDPADTATYYCARSMITNWYFDVWGAGTTVTVSS
VL 2: DIQMTQSPSTLSASVGDRVTITCKCQLSVGYMHWYQQKPGKAPKLLIYDTSKLASGVPSRFSGSGSGTAFTLTISSLQPDDFATYYCFQGSGYPFTFGGGTKLEIK
B2: in the experiment with human CD20, the binding result is “no binding (tested: between 10 and 100 nM (about 60 nM))”.

B3: 2M24/RSV hIgG1 inert (bispecific antibody, V domains shown)
VH 1: B2 VH 1
VL 1: B2 VL 1
VH 2: B2 VH 2
VL 2: B2 VL 2
notes: also called 2M24/RSV with inert human IgG1 Fc
With B3, the binding result with human CD20 was “no binding (tested: between 10 and 100 nM (about 60 nM))”.

B4: Fab 2M24-mSA fusion protein (Fab, V domains shown)
VH: B2 VH 1
VL: B2 VL 1
notes: only the 2M24 VL is tied; also called Fab 2M24 fusion to monomeric streptavidin
Regarding B4, in experiment [8], the midpoint of the response, the EC50, lay at 1.45 nM.
